These results are taken from patent US6365373 (Genentech, dated 2002).

The target in test [1] is T1, human trkC receptor immunoadhesin (trkC extracellular domain fused to immunoglobulin constant domains) (human, UniProt Q16288 32-429).
T1 construct: extracellular domain; not shown: immunoglobulin constant domains
The test is described as follows: competitive displacement of labeled NT-3 from human trkC immunoadhesin, 96-well plate.

Test [2] concerns the target T2, human trkA receptor immunoadhesin (trkA extracellular domain fused to immunoglobulin constant domains) (human, UniProt P04629 33-423).
T2 construct: extracellular domain; not shown: immunoglobulin constant domains
The test is described as follows: competitive displacement of labeled NGF from human trkA immunoadhesin, 96-well plate.

T2 sequence (P04629 33-423): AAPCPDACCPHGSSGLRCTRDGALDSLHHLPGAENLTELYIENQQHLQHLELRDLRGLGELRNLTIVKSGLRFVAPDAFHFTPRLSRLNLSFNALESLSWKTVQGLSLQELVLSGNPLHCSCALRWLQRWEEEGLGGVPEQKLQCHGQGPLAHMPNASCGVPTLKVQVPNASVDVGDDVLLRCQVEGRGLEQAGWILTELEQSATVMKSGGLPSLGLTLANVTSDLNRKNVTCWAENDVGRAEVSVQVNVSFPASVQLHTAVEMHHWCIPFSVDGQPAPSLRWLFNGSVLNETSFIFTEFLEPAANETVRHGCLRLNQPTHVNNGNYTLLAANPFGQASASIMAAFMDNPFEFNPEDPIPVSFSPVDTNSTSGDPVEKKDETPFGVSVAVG

B1: NGF127 (ligand)
chain: SSSHPIFHRGEFSVCDSESLWVTDKTTATDIKGKEVMVLGEVNINNSVFKQYFFETKCRDPNPVDSGCRGIDSKHWNSQCKTTQTFVKALTMDGKQAAWRFIRIDTACVCVLSRKAVRRA
In test [1], B1 returned an IC50mut/IC50NGF12 of 2.2 ratio and an IC50mut/IC50NT-3 of 33 ratio. Further, the IC50mut/IC50NGF in test [2] was determined as 1 ratio.

B2: NGFR2 (ligand)
chain: SSSHPIFHRGEFSVCDSVSLWVTDKTTATDIKGKEVMVLGEVNINNSVFKQYFFETKCRDPNPVDSGCRGIDSKHWNSYCKTTQTFVKALTMDGKQAAWRFIRIDTACVCVLSRKAVRRA
In test [1], B2 displayed an IC50mut/IC50NGF12 of 0.7 ratio and an IC50mut/IC50NT-3 of 10.5 ratio. The molecule further came in with an IC50mut/IC50NGF in test [2] of 0.9 ratio.

B3: NGFR3 (ligand)
chain: SSSHPIFHRGEFSVCDSESVWVTDKTTATDIKGKEVMVLGEVNINNSVFKQYFFETKCRDPNPVDSGCRGIDSKHWNSYCKTTQTFVKALTMDGKQAAWRFIRIDTACVCVLSRKAVRRA
In test [1], B3 registered an IC50mut/IC50NGF12 of 2.5 ratio and an IC50mut/IC50NT-3 of 37.2 ratio. The molecule also had an IC50mut/IC50NGF in test [2] of 1.6 ratio.

B4: NGF131 (ligand)
chain: SSSHPIFHRGEFSVCDSVSLWVTDKTTAIDIKGKEVMVLGEVNINNSVFKQYFFETKCRDPNPVDSGCRGIDSKHWNSYCTTTQTYVKALTMDGKQAAWRFIRIDTACVCVLSRKAVRRA
notes: also called NGF31
In test [1], B4 gave an IC50mut/IC50NGF12 of 0.2 ratio and an IC50mut/IC50NT-3 of 3.3 ratio. In addition, the IC50mut/IC50NGF in test [2] stood at 1.1 ratio.

B5: NGF130 (ligand)
chain: SSSHPIFHRGEFSVCDSVSLWVTDKTTATDIKGKEVMVLGEVNINNSVFKQYFFETKCRDPNPVDSGCRGIDSKHWNSYCTTTQTYVKALTMDGKQAAWRFIRIDTACVCVLSRKAVRRA
In test [1], B5 showed an IC50mut/IC50NGF12 of 0.3 ratio and an IC50mut/IC50NT-3 of 4.5 ratio. Moreover, the IC50mut/IC50NGF in test [2] came out at 1 ratio.

B6: NGF1234 (ligand)
chain: SSSHPIFHRGEFSVCDSESLWVTDKTTAIDIKGKEVMVLGEVNINNSVFKQYFFETKCRDPNPVDSGCRGIDSKHWNSQCKTTQTYVKALTMDGKQAAWRFIRIDTACVCVLSRKAVRRA
With B6, in test [1], the IC50mut/IC50NGF12 was found to be 0.3 ratio and the IC50mut/IC50NT-3 is 4.9 ratio. Further, the IC50mut/IC50NGF in test [2] amounted to 1.3 ratio.
